What was measured:
[1] = tested on: human foreskin fibroblast cells (HFF); assay: Soluble collagen I, III and VI in HFF conditioned media (direct coat ELISA); assay type: cell-based; conditions: for ECM protein levels in the media of HFF cells: 6 hour treatment, following 72 hours; for collagen III levels: untreated control 0.11 μg/ml; for collagen VI in the cell media: untreated control 0.03 ug/ml; for collagen VI levels: both 5 and 7 days
Method: Primary human foreskin fibroblast cells (HFF) were seeded into 96 well plates at a density of 1.2×10^4 cells/well and cultured overnight in 10% fetal bovine serum/Dulbecco's minimum essential media (10% FBS/DMEM) at 37° C. and 5% CO2. The cells were then starved overnight in serum free DMEM and triplicate wells treated for six hours with a range of doses of proteins with peroxidase activity; horse radish peroxidase (HRP; 0.2-50 ug/ml), Arthromyces ramosus peroxidase (ARP; 0.2-50 ug/ml), microperoxidase (MP; 8-500 ug/ml), soy bean peroxidase (SBP; 0.2-100 ug/ml) and lactoperoxidase (LP; 10-310 ug/ml) (all obtained from Sigma-Aldrich). At the end of the six hour treatment period, the media was aspirated and replaced with fresh serum free DMEM and the cells cultured for a further 72 hours. […] This assay measures the reduction of oxidized, blue nonfluorescent Alamar Blue reagent to a pink fluorescent dye in the cell medium, such that the higher the amount of reduction, the greater the cell number and/or activity (O'Brien Eur J Biochem 267 2000). Briefly, cells were bathed in a 10% Alamar Blue/phosphate-buffered saline (PBS) solution for 30-60 minutes and fluorescence measured at wavelengths of 485 nm excitation and 595 nm emission using a Wallac Victor Multilabel HTS counter. Relative fluorescent units (RFU) for each sample were normalized to control wells (DMEM only treated cells) and data expressed as mean±standard error of the mean (sem) for triplicate wells. Experiments were repeated at least three times with the combined data from all experiments shown.
The amount of soluble collagen types I, III, and VI in HFF conditioned media was measured by a direct coat ELISA method using standard curves constructed from purified human collagen I, III or VI (extracted from human placenta; col I, BD Biosciences; col III and VI, Rocklands Immunochemicals) and fibronectin (extracted from human plasma, Chemicon). Samples and standards (20 μl/well) were added to a 384 well spectraplate (Packard BioScience) and left at room temperature (RT) overnight. The spectraplate was then washed 6 times with PBS-tween 0.05% (PBS-T) and 2.5% bovine serum albumin (BSA)/PBS blocking solution added to each well and the plate incubated for 1 hour at RT. The plate was then washed 6 times with PBS-T and primary antibody (0.25 μg/ml rabbit-anti-human-collagen I polyclonal; 2 μg/ml rabbit-anti-human-collagen III polyclonal; 0.25 μg/ml rabbit-anti-human-collagen VI polyclonal; 0.2 μg/ml rabbit-anti-human-fibronectin polyclonal, all from Rockland Immunochemicals) in 5% non-fat dairy milk added to each well for four hours at RT. After washing (6×PBS-T), europium tagged anti-rabbit secondary antibody (0.5 μg/ml 1% BSA/PBS; Wallac Oy) was added for 1 hour at RT. After a final wash (6×PBS-T), enhancement solution was added for at least 10 minutes and fluorescence measured at excitation 340 nm and emission 615 nm using a Wallac Victor Multilabel HTS counter. The respective ECM concentration of each sample was determined from the standard curve (μg/ml) and normalized to control wells (DMEM only treated cells) with the mean±sem for triplicate wells calculated. Experiments were repeated at least three times with the combined data from all experiments shown.

dermis [2] = assay: Fibrogenic response after intradermal injection; assay type: in vivo, Sprague-Dawley rats; conditions: 3 days
Method: Groups of up to 4-8 female Sprague-Dawley rats were lightly anaesthetized and the dorsum shaved. At different sites on their dorsum, each rat received a bolus, intradermal injection of 4 doses of a protein with peroxidase activity (LP, […]; HRP, 1.25-25 μg; SBP, 1.25-25 μg; or micro-peroxidase [MP], 5-125 μg), a vehicle control or TGFβ2 as a positive control. Arthromyces ramosus peroxidase (ARP) was also injected at one dose of 25 μg. Proteins with peroxidase activity were injected in a volume of 50 μl which was sufficient to create a small blister in the skin that resolved within a few minutes. Across the group of rats, each dose of proteins with peroxidase activity was injected into each of the different injection sites to control for any site-related, intra-rat variation. The rats were returned to their cage and left alone for 3 days after which they were killed by CO2 asphyxiation and the skin at the injection sites collected for analysis. The skin at the injection sites was excised using a 6 mm biopsy punch with each piece bisected and fixed in 10% buffered formalin. Fixed tissue was processed for histological assessment by graded dehydration and mounting in paraffin blocks. Blocks were sectioned and sections stained with haematoxylin and eosin (H&E) and Masson's trichrome for qualitative analysis by an experienced pathologist. H&E stained sections were scored for the “fibroblast reaction” (1+-4+) to reflect the number of fibroblast cells identified at the injection site, with 4+ representing the greatest response. H&E and Massons trichrome stained sections were used to evaluate the amount of deposited, collagen-rich extracellular matrix (ECM) that was associated with the fibroblast reaction at each injection site. The collagen-rich ECM deposition was scored 1+-3+ with 3+ representing the greatest response. The scores were combined across the group of rats and statistical analysis performed using a Kruskal-Wallis one way analysis of variance on ranks (ANOVA) followed by post-hoc t-test comparing the response of the proteins with peroxidase activity to the control using Dunn's or Dunnett's method, p<0.05 was considered significant.

dermis [3] = assay: Cellular integration and ECM production of dermal filler substances implanted intradermally; assay type: in vivo, Sprague-Dawley rats; conditions: one month after implantation; for cellular integration and ECM production within Hylaform: LP 1 mg/ml or HRP 500 μg/ml added to Hylaform, or Hylaform alone; for cellular integration and ECM production within Restylane: LP 1 mg/ml or HRP 500 μg/ml added to Restylane, or Restylane alone
Method: The ability of agents with peroxidase activity to stimulate the production of endogenous ECM within, or about, a substrate when implanted in vivo was assessed. Substrates used for these experiments were two hyaluronic acid based dermal filler substances; Hylaform® Plus containing 5.5 mg/ml hylan B gel and Restylane® containing 20 mg/ml stabilised hyaluronic acid, and Sculptra® containing poly-L-lactic acid. The two pre-prepared “ready to use” hyaluronic acid filler substances were diluted 1:2 with 1 mg/ml HRP to give a final concentration of 500 μg/ml HRP whilst Sculptra powder was dissolved in a lmg/ml LP solution to final concentrations of 25 and 50 mg/ml poly-L-lactic acid. As described in example 8, female Sprague-Dawley rats were lightly anaesthetized and a volume of approximately 50 μl of the filler substance+protein with peroxidase activity or filler substance alone were injected intradermally into different sites on their dorsum. The rats were returned to their cage and left alone for 7 days or 1 month after which they were killed by CO2 asphyxiation and the skin at the injection sites collected for histological assessment as described in example 8, or immunohistochemical staining for collagen I using the method outlined previously for the SMA immunohistochemistry (in Example 3) with the variation that 5 μg/ml rabbit anti Collagen-I (Rocklands Immunochemicals) was used as the primary antibody.

[4] = intradermal, over the doses tested

What does the source list for lactoperoxidase [LP]?
increase in collagen I compared to controls ([1]; 80 μg/ml, 6 h treatment, 72 hours): 4 fold; increase in collagen I compared to controls ([1]; 310 μg/ml, 72 hours): 8 fold; increase in collagen VI levels ([1]; 160 and 310 μg/ml, 72 hours): 2 fold; ECM protein levels in the media of HFF cells [1]: increased ECM protein levels dose dependently; collagen I concentration in the media ([1]; 5 days, ARP, HRP, SBP 12.5 μg/ml, LP 160 μg/ml, MP 250 μg/ml, untreated control 0.08 μg/ml): 1.1 µg/mL; collagen III levels ([1]; 5 days): 0.18 µg/mL; collagen VI in the cell media ([1]; 7 days): 0.07 µg/mL; collagen VI levels [1]: increased the collagen VI levels; changes in collagen III levels (non-significant) ([1]; doses from 10-310 μg/ml, 72 hours): 1.5-1.7 fold; deposition of collagen-rich ECM versus control (dermis [2]; 50 μg and 125 μg, p<0.05): significant increase compared to the control; fibroblast reaction versus vehicle control (dermis [2]; 50 μg and 125 μg, p<0.05): statistically significant response; number of fibroblasts present at the injection site (H&E images) (dermis [2]; LP 125 μg, TGFβ 0.5 μg): profound increase in the number of fibroblasts; deposition of collagen-rich ECM versus control (dermis [2]; [4]): dose-dependent effect; fibroblast reaction / tissue fibroblast content at the injection site versus control (dermis [2]; [4]): dose-dependent increase in the fibroblast reaction; cellular integration and ECM production within Hylaform (dermis [3]): surprising increase in cellular infiltration and integration and cell-associated ECM production; cellular integration and ECM production within Restylane (dermis [3]): surprising increase in cellular infiltration and integration and cell-associated ECM production

B1: horse radish peroxidase (protein, UniProt P00433 31-338, looked up)
Peroxidase C1A: QLTPTFYDNSCPNVSNIVRDTIVNELRSDPRIAASILRLHFHDCFVNGCDASILLDNTTSFRTEKDAFGNANSARGFPVIDRMKAAVESACPRTVSCADLLTIAAQQSVTLAGGPSWRVPLGRRDSLQAFLDLANANLPAPFFTLPQLKDSFRNVGLNRSSDLVALSGGHTFGKNQCRFIMDRLYNFSNTGLPDPTLNTTYLQTLRGLCPLNGNLSALVDFDLRTPTIFDNKYYVNLEEQKGLIQSDQELFSSPNATDTIPLVRSFANSTQTFFNAFVEAMDRMGNITPLTGTQGQIRLNCRVVNSNS
With B1 as the molecule, how does the “increase in collagen I compared to controls” value ([1]; 0.2 μg/ml, 72 hours) read?
The value was 1.5 fold.

And the “increase in collagen VI compared to controls” value ([1]; 1.56 μg/ml, 72 hours)?
Its value is 2 fold.

What about the “increase in collagen III compared to controls” value ([1]; 3.12 μg/ml, 72 hours) of the same molecule?
Its value is 3 fold.

And the “increase in collagen I compared to controls” value ([1]; 50 μg/ml, 72 hours)?
Its value is 10 fold.

And the “increase in collagen III compared to controls” value ([1]; 25 and 50 μg/ml, 72 hours)?
Its value is 4 fold.

What about the “ECM protein levels in the media of HFF cells” value [1] of the same molecule?
The value was “increased ECM protein levels dose dependently”.

What about the “collagen III levels” value ([1]; 5 days) of the same molecule?
Its value is 0.22 µg/mL.

What about the “collagen III level” value ([1]; 7 days, 12.5 μg/ml, untreated control 0.06 μg/ml) of the same molecule?
The value was 0.3 µg/mL.

What about the “collagen VI in the cell media” value ([1]; 7 days) of the same molecule?
Its value is 0.13 µg/mL.

What about the “collagen VI levels” value [1] of the same molecule?
Its value is “increased the collagen VI levels”.

And the “increase in collagen I, steady state response” value ([1]; doses between 6.25 and 50 μg/ml, 72 hours)?
Its value is 9-10 fold.

And the “increase in collagen VI, steady state” value ([1]; doses between 6.25 and 50 μg/ml, 72 hours (ARP response not statistically significant, p=0.08))?
The value was 3-3.5 fold.

What about the “deposition of collagen-rich ECM versus control” value (dermis [2]; 25 μg, p<0.05) of the same molecule?
Its value is “statistically significant response”.

What about the “tissue fibroblast content versus control” value (dermis [2]; 25 μg, p<0.05) of the same molecule?
The value was “statistically significant response”.

And the “deposition of collagen-rich ECM versus control” value (dermis [2]; [4])?
Its value is “markedly increased”.

And the “fibroblast reaction / tissue fibroblast content at the injection site versus control” value (dermis [2]; [4])?
Its value is “markedly increased the tissue fibroblast content”.

What about the “cellular integration and ECM production within Hylaform” value (dermis [3]) of the same molecule?
Its value is “Increased cellular integration and ECM production”.

And the “cellular integration and ECM production within Restylane” value (dermis [3])?
The value was “Increased cellular integration and ECM production”.
